In paper PMC7887213 (Nature Communications, 2021):
Where a chain is given by its changes, count along the chain named.

How the values were obtained:
Settings in all cases: both partners purified
[1] = target: T1, Ac-[residues removed]-NH2 (NPNA2 peptide) (Plasmodium falciparum (synthetic CSP …)); test: ITC; peptide in the syringe, Fab (~10 uM) in the cell; DPBS, 25 °C; single-site binding model; triplicate, mean ± SD; No. of sites = peptide per Fab
T1 construct: also called 8-mer peptide; source: synthetic peptide; bought: Innopep Inc

[2] = target: T2, Ac-[residues removed]-NH2 (NPNA4 peptide) (Plasmodium falciparum (synthetic CSP …)); test: as above
T2 construct: also called 16-mer peptide; source: synthetic peptide; bought: Innopep Inc

[3] = target: T3, Ac-[residues removed]-NH2 (NPNA6 peptide) (Plasmodium falciparum (synthetic CSP …)); test: as above
T3 construct: also called 24-mer peptide; source: synthetic peptide; bought: Innopep Inc

[4] = target: T4, NPNA2 peptide (Ac-[residues removed]-NH2) (Plasmodium falciparum (synthetic CSP …); test: ITC; peptide in the syringe, Fab (~10 uM) in the cell; DPBS; 25 C; single-site binding model; triplicate; apparent affinity
T4 construct: source: synthetic peptide, bought: Innopep Inc

[5] = target: T5, NPNA4 peptide (Ac-[residues removed]-NH2) (Plasmodium falciparum (synthetic CSP …); test: as above
T5 construct: source: synthetic peptide, bought: Innopep Inc

[6] = target: T6, NPNA6 peptide (Ac-[residues removed]-NH2) (Plasmodium falciparum (synthetic CSP …); test: as above
T6 construct: source: synthetic peptide, bought: Innopep Inc

B1: Fab397 (Fab, V domains shown)
VH: EVQLVKSGGGLVKPGGSLRLSCAVSGFTFTDAWMSWVRQAPGKGPEWVGRIKSNPDGGTTDYAAPVRGRFTISRDDSKNTLYLQMNNLKTEDTAVYYCITDRDFYRSGGSWGQGTLVTV
VL: DIVMTQSPLSLPVTPGEPASISCRSRQSLLYSNGDNYLDWYLQKPGQSPQLLIYLGSNRAPGVPDRFSGSGSGTDFTLKISRVEAEDVGVYYCMQTLQTPHTFGQGTKLEIK
notes: also called mAb397; source: ExpiCHO cells, purified (HiTrap Protein G, SEC)
With B1 the “stoichiometry N” value [1] was 1.18, the “stoichiometry N” value [2] was 1.3 and the “stoichiometry N” value [3] was 0.73.

B2: Fab397 (Fab, V domains shown)
VH: B1 VH
VL: B1 VL
notes: as for B1
With B2 the Kd [4] was 2740 nM, the Kd [5] was 255 nM and the Kd [6] was 92 nM.

B3: Fab317 (Fab, V domains shown)
VH: QMQLVESGGGVVQPGRSLRLSCTASGFTFSTYAMHWVRQSPGQGLQWVAVISYHSTNKYYEDSVRGRFTISRDNSKNTLYLQMNSLRAEDTAVYYCARDGYSSSFFDFWGQGTLVTVSS
VL: DIQMTQSPSTLSASVGDRVAITCRASQSISRWLAWYQQQPGKAPKLLMSGASVLESGVPSRFSGSGSGTEFTLTISSLQPDDFATYYCQHYNSYFVTFGQGTKVEIK
notes: also called mAb317; source: ExpiCHO cells, purified (HiTrap Protein G, SEC)
B3 was tested, and the “stoichiometry N” value [1] was 1.36, the “stoichiometry N” value [2] was 0.95 and the “stoichiometry N” value [3] was 0.723.

B4: Fab317 (Fab, V domains shown)
VH: B3 VH
VL: B3 VL
notes: as for B3
B4 gave a Kd [4] of 132 nM, a Kd [5] of 70 nM and a Kd [6] of 111 nM.

B5: Fab364 (Fab, V domains shown)
VH: QVQLVESGGGVVQPGGSLRLSCAASGFTFSGYGMHWVRQVPGKGLEWVAIIWFDGSQKYYADSVQGRFTISRDNSKKTLFLRMNSLRAEDTAVYYCAKVHDDEPTQDYWGQGTLVTVSS
VL: DIQMTQSPSTLSASVGDRVTITCRASQGISTSLAWYQQKPGKAPKLLIYKASSLESGVPSRFSGSGSGTEFTLTITSLQPEDFATYYCQQYKRYWTFGQGTKVEIK
notes: also called mAb364; source: ExpiCHO cells, purified (HiTrap Protein G, SEC)
In the case of B5, the “stoichiometry N” value [1] is reported as 1.41, the “stoichiometry N” value [2] is reported as 0.634 and the “stoichiometry N” value [3] is reported as 0.445.

B6: Fab364 (Fab, V domains shown)
VH: B5 VH
VL: B5 VL
notes: as for B5
B6 gave a Kd [4] of 47 nM, a Kd [5] of 28 nM and a Kd [6] of 27 nM.

B7: Fab395 (Fab, V domains shown)
VH: QEQLVESGGGVVQPGRSLRLSCAAASEFCFSCYGMHWVRQAPGKGLEWVAVIWHDGSNQHFADSVKGRFTISRDNSKNIMYLQMNSLRAEDTAVYYCASATRYDILTGAFDYWGQGTLVTVSS
VL: B5 VL with G28S, S32W, T76S, E81D, K92S
notes: also called mAb395; source: ExpiCHO cells, purified (HiTrap Protein G, SEC)
B7 was tested, and the “stoichiometry N” value [1] was 1.35, the “stoichiometry N” value [2] was 0.608 and the “stoichiometry N” value [3] was 0.432.

B8: Fab311 (Fab, V domains shown)
VH: EVQLVESGGGVVPPGRSLRLSCATSGFTFSNYGMHWVRQAPGKGLEWVAIIWYDGSRNFYAASVEGRFTISRDNSKNTLYLQMNSLRVEDTAVYYCARAAYYDTSGYGDYWGQGTLVTVSS
VL: ESVLTQPPSVSGAPGQTVTISCTGGSSNIGAGYDVHWYQQLPGTAPKLLIYGNINRPSGVPDRFSGSKSGTSASLAITGLQAEDEADYYCQSYDRRLSGSWVFGGGTKLTVL
notes: also called mAb311; source: ExpiCHO cells, purified (HiTrap Protein G, SEC)
B8 was tested, and the “stoichiometry N” value [1] was 1.27, the “stoichiometry N” value [2] was 0.578 and the “stoichiometry N” value [3] was 0.386.

B9: Fab311 (Fab, V domains shown)
VH: B8 VH
VL: B8 VL
notes: as for B8
For B9, the Kd [4] was 152 nM and the Kd [6] was 19 nM.

B10: Fab239 (Fab, V domains shown)
VH: QVQLVESGGGVVQPGRSLRLSCAASRLTFRNFGMHWVRQTPGKGLEWVAVIWHDGSNKFYADSVEGRFTISRDNSKNTLYLQMNSLRDEDTAIYYCAKDWGGASDRVFDYWGRGTLVIVSS
VL: DIQMTQSPSTLSASVGDRVTITCRASQSVSTSLAWYQQKPGKAPNLLIYQASTLYRGVPSRFSGSGSGTEFTLTIGSLQPDDFATYYCQHYNSYSRITFGQGTRLEIK
notes: also called mAb239; source: ExpiCHO cells, purified (HiTrap Protein G, SEC)
B10 was tested, and the “stoichiometry N” value [1] was 1.34, the “stoichiometry N” value [2] was 0.572 and the “stoichiometry N” value [3] was 0.348.

B11: Fab239 (Fab, V domains shown)
VH: B10 VH
VL: B10 VL
notes: as for B10
Binder B11 has a Kd [4] of 641 nM, a Kd [5] of 20 nM and a Kd [6] of 10 nM.

B12: Fab356 (Fab, V domains shown)
VH: VQLVESGGGVVQPGRSLRLSCAASGFTFRNFGMHWVRQTPGKGLEWVAVIWHDGSNKFYADSVEGRFTISRDNSKNMIYLQMNSLRVEDTAIYYCARDSLFYDHDNSGYYGYWGQGTLVTVSS
VL: QIVMTQSPATVSVSPGERATLSCRASRSVTSKLAWYQQKPGQAPRLLIYGASTRATGIPARFSGSGSGTEFTLTISSLQSEDFAVYFCQQYNNGFTFGPGTKVDFK
notes: also called mAb356; source: ExpiCHO cells, purified (HiTrap Protein G, SEC)
B12 was tested, and the “stoichiometry N” value [1] was 1.29, the “stoichiometry N” value [2] was 0.542 and the “stoichiometry N” value [3] was 0.354.

B13: Fab224 (Fab, V domains shown)
VH: EVQLVESGGGLVQPGRSLRLPCTASGFSFGDHAMSWVRQAPGKGLEWVGFIRKTTYGATTHYAAAVRGRFTISRDDSKSIVYLQMNSLKTEDTAVYFCTRVQLDYGPGYQYYGMDVWGQGTTVTVSS
VL: ESVLTQPPSVSGAPGQRVTISCTGMNSNIGAGYDVYWYQQLPGRAPKLLIYGNSNRPSGVPDRFSGSRSGTSASLAITGLQAEDEADYYCQSYDTSLNGWAFGGGTKLTVL
notes: also called mAb224; source: ExpiCHO cells, purified (HiTrap Protein G, SEC)
For B13, the “stoichiometry N” value [1] was 1.59, the “stoichiometry N” value [2] was 1.26 and the “stoichiometry N” value [3] was 0.749.

B14: Fab224 (Fab, V domains shown)
VH: B13 VH
VL: B13 VL
notes: as for B13
Binder B14 has a Kd [4] of 14200 nM, a Kd [5] of 126 nM and a Kd [6] of 141 nM.

B15: Fab366 (Fab, V domains shown)
VH: QVQLVQSGAEVKKPGASARVSCKASGYTLTDFYLHWVRQAPGQGLEWMGWLNPHSGGTNYAQKFLGRVSMTRDTSISTAYMELNKLISDDTAVYFCVRSDQEALRGAFDIWGQGTMVFVSS
VL: DIQMTQSPSSLSASVGDTVTITCRASQSINDYLNWYQQKPGKAPKLLIYATSSLHSGVPSRFSGSGFGTDFTLTISSLQPEDSATYLCQQSHSLWTFGQGTKVEVK
notes: also called mAb366; source: ExpiCHO cells, purified (HiTrap Protein G, SEC)
With B15 the “stoichiometry N” value [1] was 1.21, the “stoichiometry N” value [2] was 1.21 and the “stoichiometry N” value [3] was 0.67.

B16: Fab399 (Fab, V domains shown)
VH: EVQLVESGGGLVQPGRSLRLSCTTSGFTFGDYAMSWFRQAPGKGLEWVGFIRSKGFGGTAEYAAFVKGRFTISRDDSRSIAYLQMTSLKPEDTAVYYCSRVGVVIATAVYWGQGTLVTVSS
VL: DILMTQTPLSLSVTPGQPASISCKSSQSLLDNDGKTYLYWYLQKPGQSPQLLIYEVSNRFSGVPERFSGSGSGTDFTLKIRRVEAEDVGVYYCMQRIDLPWTFGQGTKVEIK
notes: also called mAb399; source: ExpiCHO cells, purified (HiTrap Protein G, SEC)
With B16 the “stoichiometry N” value [1] was 3.23, the “stoichiometry N” value [2] was 1.74 and the “stoichiometry N” value [3] was 0.737.
